B1: biotinylated Strep II Avi-tagged SIAH1^SBD (enzyme, human, UniProt Q8IUQ4 90-282, looked up)
chain: VANSVLFPCKYASSGCEITLPHTEKADHEELCEFRPYSCPCPGASCKWQGSLDAVMPHLMHQHKSITTLQGEDIVFLATDINLPGAVDWVMMQSCFGFHFMLVLEKQEKYDGHQQFFAIVQLIGTRKQAENFAYRLELNGHRRRLTWEATPRSIHEGIATAIMNSDCLVFDTSIAQLFAENGNLGINVTISMC
modifications: biotinylated (Avi tag)
notes: range 90-282; Captured through terbium-coupled streptavidin in TR-FRET; also called BiotinSIAH1^SBD; not shown: N-terminal Strep II-Avi tag
B2: SIAH1^SBD (tag-cleaved) (enzyme, human, UniProt Q8IUQ4 90-282, looked up)
chain: B1 chain
notes: range 90-282; also called recombinant SIAH1^SBD
B3: V5SIAH1^C44S (enzyme, UniProt Q8IUQ4 1-282, looked up)
chain: MSRQTATALPTGTSKCPPSQRVPALTGTTASNNDLASLFECPVSFDYVLPPILQCQSGHLVCSNCRPKLTCCPTCRGPLGSIRNLAMEKVANSVLFPCKYASSGCEITLPHTEKADHEELCEFRPYSCPCPGASCKWQGSLDAVMPHLMHQHKSITTLQGEDIVFLATDINLPGAVDWVMMQSCFGFHFMLVLEKQEKYDGHQQFFAIVQLIGTRKQAENFAYRLELNGHRRRLTWEATPRSIHEGIATAIMNSDCLVFDTSIAQLFAENGNLGINVTISMC
notes: Expressed from pLEX_307 in HEK293T Cas9 cells; also called V5SIAH1^44C>S; V5SIAH1^44>S; not shown: V5 tag

Assays:
[1] = target: T1, BodipyFL-labeled BCL6^5-360 (human, UniProt P41182 5-360, BodipyFL label (site not stated)); assay: TR-FRET, apparent KD; BodipyFL-BCL6^5-360 titrated to biotinylated SIAH1^SBD in the presence of 2 µM BI-3802
T1 construct: also called BodipyBCL6^5-360; BodipyFL-BCL6^5-360
Procedure: Titrations of BodipyFL-BCL6⁵⁻³⁶⁰ were carried out by mixing 400 nM biotinylated Strep II Avi-tagged SIAH1^SBD, 2 μM compounds or equivalent volume of DMSO, and 4 nM terbium-coupled streptavidin in the same assay buffer. After dispensing the assay mixture, increasing concentration of BodipyFL-BCL6⁵⁻³⁶⁰ was added to the SIAH1 mixture in a […] (7.5 μL each, total 15 μL assay volume). The 520/490 nm ratios were measured in as described above and plotted to calculate the KD^APP values using dose-response analysis standard four parameter log-logistic curves using the dr4pl R package.

SIAH1^SBD (tag-cleaved) = target: B2; assay: isothermal titration calorimetry, peptide injected into SIAH1^SBD
Procedure: (§1) All calorimetric experiments were carried out using an Affinity ITC from TA Instruments (New Castle, Del.) equipped with auto sampler in a buffer containing 20 mM HEPES, pH 7.5, 150 mM NaCl, and 0.5 mM TCEP at 25° C. For the BCL6-SIAH1 interaction, 25 μM BCL6⁵⁻³⁶⁰ protein solution in the calorimetric cell was titrated by injecting 2 μL of 250 μM SIAH1^SBD protein solution in 200 sec intervals with stirring speed at 125 rpm. […] Resulting isotherm was fitted with a single site model to yield thermodynamic parameters of DH, DS, stoichiometry, and Kd using NanoAnalyze software (TA instruments).

BCL6^5-360 (ITC) = target: T2, BCL6^5-360 (ITC) (human, UniProt P41182 5-360); assay: isothermal titration calorimetry, SIAH1^SBD injected into BCL6^5-360
T2 construct: also called BCL6^5-360 protein
Procedure: as §1

eGFPBCL6^1-275 = target: T3, eGFPBCL6^1-275 (human, UniProt P41182 1-275); assay: immunofluorescence colocalization in HEK293T cells, 1 µM BI-3802
T3 construct: Expressed in HEK293T Cas9 cells; also called eGFPBCL6^275; minimal degradable construct; not shown: eGFP

[2] = target: T4, eGFPBCL6^FL 249-251 VSP>GSA (human, UniProt P41182 1-706); assay: co-immunoprecipitation (GFP-trap) from HEK293T cells, BI-3802 or DMSO
T4 construct: Expressed in HEK293T Cas9 cells; also called BCL6 V×P motif mutant; not shown: eGFP
Procedure: (§2) The cells were harvested and lysed in RIPA lysis buffer (ThermoFisher Scientific, #89900) infused with protease inhibitor (ThermoFisher Scientific, Halt™ Protease Inhibitor Cocktail #78438) for 30 min at 4° C. […] Lysates were cleared by centrifugation (17,000 g, 20 min, 4° C.). 20 μL of pre-cleaned GFP-trap magnetic agarose beads (Chromotek, gmta-20) was added to the lysates. The beads-lysate mix was incubated at 4° C. for 30 min. Proteins were eluted in 2×sample buffer at 98° C. Eluates and whole-cell lysates were run on a polyacrylamide gel, transferred to a nitrocellulose membrane and immunoblotted for eGFP and V5.

eGFPBCL6^1-250 = target: T5, eGFPBCL6^1-250 (human, UniProt P41182 1-250); assay: as above
T5 construct: Expressed in HEK293T Cas9 cells; also called eGFPBCL6^250; non-degradable eGFPBCL6^1-250 construct; not shown: eGFP
Procedure: as §2

Binder: B1
- Kd [1]: 0.2 µM

Binder: EYSRPTLEVSPNVCHSNIYS (also called V×P-containing polypeptide) [BCL6^241-260 peptide]
- binding result (SIAH1^SBD (tag-cleaved)): binds

Binder: B2
- binding result (BCL6^5-360 (ITC)): binds

Binder: B3
- binding result (eGFPBCL6^1-275): binds
- binding result [2]: no binding
- binding result (eGFPBCL6^1-250): no binding

Reference: patent US20220281931A1 (published 2022)
